Laboratory results: US20090325873A1, “HUMAN GLP-1 MIMETIBODIES, COMPOSITIONS, METHODS AND USES” (CENTOCOR, INC., priority 2006, published 2009)

Molecular target: GLP-1R on Rinm cells
Assay: cell-based or functional assay

cAMP activity in Rinm cells, EC50: 0.4 nM
Substance: GLP-1 peptide (from UniProt P01275 98-127)
